# Data as given in US20260242419A1, “A CYCLIC PEPTIDE FOR TRAPPING INTERLEUKIN-1 BETA” (Merck Sharp & Dohme LLC, priority 2023, published 2026).
# Starred links: 1 amine or outer side, 2 acyl side, 3 side chain; linkers in the order of their positions; H or OH if unused. Non-standard residues stand in square brackets, D forms with d. SbOHPhe4CONH2 = (2S,3S)-2-amino-3-(4-carbamoylphenyl)-3-hydroxypropanoic acid, NC(=O)c1ccc([C@H](O[*:3])[C@H](N[*:1])C(=O)[*:2])cc1; TyrEtNAc = (2S)-3-[4-(2-acetamidoethoxy)phenyl]-2-amino-propanoic acid, CC(=O)NCCOc1ccc(C[C@H](N[*:1])C(=O)[*:2])cc1; alThrOEt = O-ethyl-L-allothreonine, CCO[C@@H](C)[C@H](N[*:1])C(=O)[*:2]; ThrOEt = O-ethyl-L-threonine, CCO[C@H](C)[C@H](N[*:1])C(=O)[*:2]; dPro(4R-(4-pyridylmethyl)) = O=C(O)[C@H]1C[C@@H](Cc2ccncc2)CN1; Trp(βS-Me,4-F) = C[C@@H](c1c[nH]c2cccc(F)c12)[C@H](N)C(=O)O; Bip(4'-CONH2) = NC(=O)c1ccc(-c2ccc(C[C@H](N)C(=O)O)cc2)cc1; dPro(3S-(4-F-Bn)) = O=C(O)[C@@H]1NCC[C@@H]1Cc1ccc(F)cc1; Ala(pyrimidin-5-yl) = N[C@@H](Cc1cncnc1)C(=O)O; Phe(4-CONH2) = NC(=O)c1ccc(C[C@H](N)C(=O)O)cc1; Phe(4-COOH) = N[C@@H](Cc1ccc(C(=O)O)cc1)C(=O)O; Pro(cis-4-F) = O=C(O)[C@@H]1C[C@H](F)CN1; Ala(4-THP) = N[C@@H](CC1CCOCC1)C(=O)O; d(αMeD) = C[C@@](N)(CC(=O)O)C(=O)O; 4Pal = N[C@@H](Cc1ccncc1)C(=O)O; d(αMeS) = C[C@@](N)(CO)C(=O)O; NMeDab = CN[C@@H](CCN)C(=O)O; Dab = NCC[C@H](N)C(=O)O; Aib = CC(C)(N)C(=O)O
# Target: Recombinant human IL-1β (BioLegend 579404) (human, UniProt P01584 117-269)
# Assay: cell-based or functional assay
row,Binder,MRC5 IC50
1,"cyclo([TyrEtNAc][4Pal][Phe(4-CONH2)]G[Pro(cis-4-F)][Trp(βS-Me,4-F)][Aib]SW[Aib][alThrOEt]Q[NMeDab]G[dPro(4R-(4-pyridylmethyl))]) (SMILES CCO[C@@H](C)[C@@H]1NC(=O)C(C)(C)NC(=O)[C@H](Cc2c[nH]c3ccccc23)NC(=O)[C@H](CO)NC(=O)C(C)(C)NC(=O)[C@H]([C@@H](C)c2c[nH]c3cccc(F)c23)NC(=O)[C@@H]2C[C@H](F)CN2C(=O)CNC(=O)[C@H](Cc2ccc(C(N)=O)cc2)NC(=O)[C@H](Cc2ccncc2)NC(=O)[C@H](Cc2ccc(OCCNC(C)=O)cc2)NC(=O)[C@H]2C[C@@H](Cc3ccncc3)CN2C(=O)CNC(=O)[C@H](CCN)N(C)C(=O)[C@H](CCC(N)=O)NC1=O) [SEQ ID NO 381]",0.041 nM
2,"cyclo([TyrEtNAc][4Pal][Phe(4-CONH2)]G[Pro(cis-4-F)][Trp(βS-Me,4-F)][Aib]SW[Aib][Ala(pyrimidin-5-yl)]Q[Dab]G[dPro(4R-(4-pyridylmethyl))]) [SEQ ID NO 384]",0.086 nM
3,"cyclo([TyrEtNAc][4Pal][Phe(4-CONH2)]G[Pro(cis-4-F)][Trp(βS-Me,4-F)][Aib]SW[d(αMeD)][Ala(4-THP)]Q[Dab]G[dPro(4R-(4-pyridylmethyl))]) (SMILES CC(=O)NCCOc1ccc(C[C@@H]2NC(=O)[C@H]3C[C@@H](Cc4ccncc4)CN3C(=O)CNC(=O)[C@H](CCN)NC(=O)[C@H](CCC(N)=O)NC(=O)[C@H](CC3CCOCC3)NC(=O)[C@@](C)(CC(=O)O)NC(=O)[C@H](Cc3c[nH]c4ccccc34)NC(=O)[C@H](CO)NC(=O)C(C)(C)NC(=O)[C@H]([C@@H](C)c3c[nH]c4cccc(F)c34)NC(=O)[C@@H]3C[C@H](F)CN3C(=O)CNC(=O)[C@H](Cc3ccc(C(N)=O)cc3)NC(=O)[C@H](Cc3ccncc3)NC2=O)cc1) [SEQ ID NO 377]",0.04 nM
4,"cyclo([Bip(4'-CONH2)][4Pal][Phe(4-COOH)]G[Pro(cis-4-F)][Trp(βS-Me,4-F)][Aib]SW[d(αMeD)][Ala(pyrimidin-5-yl)]Q[Dab]G[dPro(3S-(4-F-Bn))]) (SMILES C[C@@H](c1c[nH]c2cccc(F)c12)[C@@H]1NC(=O)[C@@H]2C[C@H](F)CN2C(=O)CNC(=O)[C@H](Cc2ccc(C(=O)O)cc2)NC(=O)[C@H](Cc2ccncc2)NC(=O)[C@H](Cc2ccc(-c3ccc(C(N)=O)cc3)cc2)NC(=O)[C@H]2[C@@H](Cc3ccc(F)cc3)CCN2C(=O)CNC(=O)[C@H](CCN)NC(=O)[C@H](CCC(N)=O)NC(=O)[C@H](Cc2cncnc2)NC(=O)[C@@](C)(CC(=O)O)NC(=O)[C@H](Cc2c[nH]c3ccccc23)NC(=O)[C@H](CO)NC(=O)C(C)(C)NC1=O) [SEQ ID NO 379]",0.016 nM

# Now from value to binder:
row,MRC5 IC50,Binder
1,0.043 nM,"cyclo([TyrEtNAc][4Pal][Phe(4-CONH2)]G[Pro(cis-4-F)][Trp(βS-Me,4-F)][Aib]SW[d(αMeS)][Ala(4-THP)]Q[Dab]G[dPro(4R-(4-pyridylmethyl))]) (SMILES CC(=O)NCCOc1ccc(C[C@@H]2NC(=O)[C@H]3C[C@@H](Cc4ccncc4)CN3C(=O)CNC(=O)[C@H](CCN)NC(=O)[C@H](CCC(N)=O)NC(=O)[C@H](CC3CCOCC3)NC(=O)[C@@](C)(CO)NC(=O)[C@H](Cc3c[nH]c4ccccc34)NC(=O)[C@H](CO)NC(=O)C(C)(C)NC(=O)[C@H]([C@@H](C)c3c[nH]c4cccc(F)c34)NC(=O)[C@@H]3C[C@H](F)CN3C(=O)CNC(=O)[C@H](Cc3ccc(C(N)=O)cc3)NC(=O)[C@H](Cc3ccncc3)NC2=O)cc1) [SEQ ID NO 378]"
2,0.042 nM,"cyclo([TyrEtNAc][4Pal][SbOHPhe4CONH2]G[Pro(cis-4-F)][Trp(βS-Me,4-F)][Aib]SW[Aib][Ala(pyrimidin-5-yl)]Q[NMeDab]G[dPro(4R-(4-pyridylmethyl))]) (SMILES CC(=O)NCCOc1ccc(C[C@@H]2NC(=O)[C@H]3C[C@@H](Cc4ccncc4)CN3C(=O)CNC(=O)[C@H](CCN)N(C)C(=O)[C@H](CCC(N)=O)NC(=O)[C@H](Cc3cncnc3)NC(=O)C(C)(C)NC(=O)[C@H](Cc3c[nH]c4ccccc34)NC(=O)[C@H](CO)NC(=O)C(C)(C)NC(=O)[C@H]([C@@H](C)c3c[nH]c4cccc(F)c34)NC(=O)[C@@H]3C[C@H](F)CN3C(=O)CNC(=O)[C@H]([C@@H](O)c3ccc(C(N)=O)cc3)NC(=O)[C@H](Cc3ccncc3)NC2=O)cc1) [SEQ ID NO 383]"
3,0.048 nM,"cyclo([TyrEtNAc][4Pal][Phe(4-CONH2)]G[Pro(cis-4-F)][Trp(βS-Me,4-F)][Aib]SW[Aib][ThrOEt]Q[NMeDab]G[dPro(4R-(4-pyridylmethyl))]) (SMILES CCO[C@H](C)[C@@H]1NC(=O)C(C)(C)NC(=O)[C@H](Cc2c[nH]c3ccccc23)NC(=O)[C@H](CO)NC(=O)C(C)(C)NC(=O)[C@H]([C@@H](C)c2c[nH]c3cccc(F)c23)NC(=O)[C@@H]2C[C@H](F)CN2C(=O)CNC(=O)[C@H](Cc2ccc(C(N)=O)cc2)NC(=O)[C@H](Cc2ccncc2)NC(=O)[C@H](Cc2ccc(OCCNC(C)=O)cc2)NC(=O)[C@H]2C[C@@H](Cc3ccncc3)CN2C(=O)CNC(=O)[C@H](CCN)N(C)C(=O)[C@H](CCC(N)=O)NC1=O) [SEQ ID NO 382]"
4,0.018 nM,"cyclo([Bip(4'-CONH2)][4Pal][Phe(4-CONH2)]G[Pro(cis-4-F)][Trp(βS-Me,4-F)][Aib]SW[d(αMeD)][Ala(pyrimidin-5-yl)]Q[Dab]G[dPro(3S-(4-F-Bn))]) (SMILES C[C@@H](c1c[nH]c2cccc(F)c12)[C@@H]1NC(=O)[C@@H]2C[C@H](F)CN2C(=O)CNC(=O)[C@H](Cc2ccc(C(N)=O)cc2)NC(=O)[C@H](Cc2ccncc2)NC(=O)[C@H](Cc2ccc(-c3ccc(C(N)=O)cc3)cc2)NC(=O)[C@H]2[C@@H](Cc3ccc(F)cc3)CCN2C(=O)CNC(=O)[C@H](CCN)NC(=O)[C@H](CCC(N)=O)NC(=O)[C@H](Cc2cncnc2)NC(=O)[C@@](C)(CC(=O)O)NC(=O)[C@H](Cc2c[nH]c3ccccc23)NC(=O)[C@H](CO)NC(=O)C(C)(C)NC1=O) [SEQ ID NO 380]"
